According to patent US20200087373A1 (UNIVERSITY OF COPENHAGEN, published 2020):
Ends that are not written are not given here. * marks the point of attachment. C16 diacid = O=C(O)CCCCCCCCCCCCCCC(=O)*

T1: human GIP receptor (human, UniProt P48546 22-466)
T1 construct: whole, on cells; Transiently transfected COS-7 cells expressing the human GIP receptor; also called hGIPR
T1 sequence (looked up): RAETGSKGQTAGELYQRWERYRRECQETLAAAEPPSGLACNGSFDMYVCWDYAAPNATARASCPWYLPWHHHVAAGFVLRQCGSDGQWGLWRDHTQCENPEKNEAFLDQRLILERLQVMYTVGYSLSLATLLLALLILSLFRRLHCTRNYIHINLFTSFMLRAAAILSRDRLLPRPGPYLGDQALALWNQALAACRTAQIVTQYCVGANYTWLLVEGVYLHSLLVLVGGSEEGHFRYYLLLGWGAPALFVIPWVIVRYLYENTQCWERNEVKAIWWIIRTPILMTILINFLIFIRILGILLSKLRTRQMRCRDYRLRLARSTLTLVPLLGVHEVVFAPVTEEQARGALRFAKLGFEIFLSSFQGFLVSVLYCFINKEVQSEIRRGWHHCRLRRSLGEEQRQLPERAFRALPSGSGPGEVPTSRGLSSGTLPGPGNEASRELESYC


Columns and labels:
human GIP receptor [1] = target: T1, human GIP receptor; assay: ratio of Ki with 2% HSA to Ki without HSA, 125I-hGIP competition binding on hGIPR COS-7 cells;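 also: nonspecific binding was defined as radioligand signal on cells lacking the receptor transfection, with cell lysates measured after washes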
Description: (§1) After incubation, the cells were washed twice in ice-cold binding buffer (+/−2% HSA) and lysed using 200 mM NaOH with 1% SDS for 30 min. Nonspecific binding was determined as the binding of radioactive ligand to untransfected cells.

human GIP receptor [2] = target: T1, human GIP receptor; assay: cell-based or functional assay
human GIP receptor [3] = target: T1, human GIP receptor; assay: 125I-hGIP(1-42) competition binding, COS-7 cells expressing human GIPR, without HSA;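 also: nonspecific binding defined as radioligand bound to cells lacking the transfected receptor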
Description: as §1

human GIP receptor [4] = target: T1, human GIP receptor; assay: 125I-hGIP(1-42) competition binding, COS-7 cells expressing human GIPR, with 2% HSA;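 also: nonspecific signal taken as radioligand bound to untransfected cells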
Description: as §1

Row | Binder | Fold (Ki + HSA / Ki - HSA) (human GIP receptor [1]) | cAMP accumulation Fold (fold change from GIP(5-30)NH2) (human GIP receptor [2]) | cAMP accumulation IC50 (human GIP receptor [2]) | cAMP accumulation logIC50 (human GIP receptor [2]) | Ki (human GIP receptor [3]) | Ki (human GIP receptor [4])
1 | TFISDYK(C16 diacid)IAMDKIHQQDFVNWLLAQK-NH2 (N-terminus assumed; SMILES CC[C@H](C)[C@H](NC(=O)[C@H](CCCCNC(=O)CCCCCCCCCCCCCCC(=O)O)NC(=O)[C@H](Cc1ccc(O)cc1)NC(=O)[C@H](CC(=O)O)NC(=O)[C@H](CO)NC(=O)[C@@H](NC(=O)[C@H](Cc1ccccc1)NC(=O)[C@@H](N)[C@@H](C)O)[C@@H](C)CC)C(=O)N[C@@H](C)C(=O)N[C@@H](CCSC)C(=O)N[C@@H](CC(=O)O)C(=O)N[C@@H](CCCCN)C(=O)N[C@H](C(=O)N[C@@H](Cc1c[nH]cn1)C(=O)N[C@@H](CCC(N)=O)C(=O)N[C@@H](CCC(N)=O)C(=O)N[C@@H](CC(=O)O)C(=O)N[C@@H](Cc1ccccc1)C(=O)N[C@H](C(=O)N[C@@H](CC(N)=O)C(=O)N[C@@H](Cc1c[nH]c2ccccc12)C(=O)N[C@@H](CC(C)C)C(=O)N[C@@H](CC(C)C)C(=O)N[C@@H](C)C(=O)N[C@@H](CCC(N)=O)C(=O)N[C@@H](CCCCN)C(N)=O)C(C)C)[C@@H](C)CC) [AT173 [hGIP(5-30)NH2[S11K]-C16diacid/11]] | 9.7 fold | 0.3 fold | 9.1 nM | -8.04 log(M) | 6 nM | 58.7 nM
2 | TFISDYSIAMDKIHK(C16 diacid)QDFVNWLLAQK-NH2 (N-terminus assumed; SMILES CC[C@H](C)[C@H](NC(=O)[C@H](CO)NC(=O)[C@H](Cc1ccc(O)cc1)NC(=O)[C@H](CC(=O)O)NC(=O)[C@H](CO)NC(=O)[C@@H](NC(=O)[C@H](Cc1ccccc1)NC(=O)[C@@H](N)[C@@H](C)O)[C@@H](C)CC)C(=O)N[C@@H](C)C(=O)N[C@@H](CCSC)C(=O)N[C@@H](CC(=O)O)C(=O)N[C@@H](CCCCN)C(=O)N[C@H](C(=O)N[C@@H](Cc1c[nH]cn1)C(=O)N[C@@H](CCCCNC(=O)CCCCCCCCCCCCCCC(=O)O)C(=O)N[C@@H](CCC(N)=O)C(=O)N[C@@H](CC(=O)O)C(=O)N[C@@H](Cc1ccccc1)C(=O)N[C@H](C(=O)N[C@@H](CC(N)=O)C(=O)N[C@@H](Cc1c[nH]c2ccccc12)C(=O)N[C@@H](CC(C)C)C(=O)N[C@@H](CC(C)C)C(=O)N[C@@H](C)C(=O)N[C@@H](CCC(N)=O)C(=O)N[C@@H](CCCCN)C(N)=O)C(C)C)[C@@H](C)CC) [AT179 [hGIP(5-30)NH2[Q19K]-C16diacid/19]] | 6.3 fold | 2.1 fold | 57.5 nM | -7.24 log(M) | 378 nM | 2380 nM
3 | TFISDYSIAMK(C16 diacid)KIHQQDFVNWLLAQK-NH2 (N-terminus assumed; SMILES CC[C@H](C)[C@H](NC(=O)[C@H](CO)NC(=O)[C@H](Cc1ccc(O)cc1)NC(=O)[C@H](CC(=O)O)NC(=O)[C@H](CO)NC(=O)[C@@H](NC(=O)[C@H](Cc1ccccc1)NC(=O)[C@@H](N)[C@@H](C)O)[C@@H](C)CC)C(=O)N[C@@H](C)C(=O)N[C@@H](CCSC)C(=O)N[C@@H](CCCCNC(=O)CCCCCCCCCCCCCCC(=O)O)C(=O)N[C@@H](CCCCN)C(=O)N[C@H](C(=O)N[C@@H](Cc1c[nH]cn1)C(=O)N[C@@H](CCC(N)=O)C(=O)N[C@@H](CCC(N)=O)C(=O)N[C@@H](CC(=O)O)C(=O)N[C@@H](Cc1ccccc1)C(=O)N[C@H](C(=O)N[C@@H](CC(N)=O)C(=O)N[C@@H](Cc1c[nH]c2ccccc12)C(=O)N[C@@H](CC(C)C)C(=O)N[C@@H](CC(C)C)C(=O)N[C@@H](C)C(=O)N[C@@H](CCC(N)=O)C(=O)N[C@@H](CCCCN)C(N)=O)C(C)C)[C@@H](C)CC) [AT177 [hGIP(5-30)NH2[D15K]-C16diacid/15]] | 3.8 fold | 1.3 fold | 37.2 nM | -7.43 log(M) | 117 nM | 444 nM
4 | TFISDYSIAK(C16 diacid)DKIHQQDFVNWLLAQK-NH2 (N-terminus assumed; SMILES CC[C@H](C)[C@H](NC(=O)[C@H](CO)NC(=O)[C@H](Cc1ccc(O)cc1)NC(=O)[C@H](CC(=O)O)NC(=O)[C@H](CO)NC(=O)[C@@H](NC(=O)[C@H](Cc1ccccc1)NC(=O)[C@@H](N)[C@@H](C)O)[C@@H](C)CC)C(=O)N[C@@H](C)C(=O)N[C@@H](CCCCNC(=O)CCCCCCCCCCCCCCC(=O)O)C(=O)N[C@@H](CC(=O)O)C(=O)N[C@@H](CCCCN)C(=O)N[C@H](C(=O)N[C@@H](Cc1c[nH]cn1)C(=O)N[C@@H](CCC(N)=O)C(=O)N[C@@H](CCC(N)=O)C(=O)N[C@@H](CC(=O)O)C(=O)N[C@@H](Cc1ccccc1)C(=O)N[C@H](C(=O)N[C@@H](CC(N)=O)C(=O)N[C@@H](Cc1c[nH]c2ccccc12)C(=O)N[C@@H](CC(C)C)C(=O)N[C@@H](CC(C)C)C(=O)N[C@@H](C)C(=O)N[C@@H](CCC(N)=O)C(=O)N[C@@H](CCCCN)C(N)=O)C(C)C)[C@@H](C)CC) [AT176 [hGIP(5-30)NH2[M14K]-C16diacid/14]] | 5.1 fold | 3.8 fold | 105 nM | -6.98 log(M) | 82.6 nM | 420 nM
5 | TFISDYSK(C16 diacid)AMDKIHQQDFVNWLLAQK-NH2 (N-terminus assumed; SMILES CC[C@H](C)[C@H](NC(=O)[C@H](CCCCN)NC(=O)[C@H](CC(=O)O)NC(=O)[C@H](CCSC)NC(=O)[C@H](C)NC(=O)[C@H](CCCCNC(=O)CCCCCCCCCCCCCCC(=O)O)NC(=O)[C@H](CO)NC(=O)[C@H](Cc1ccc(O)cc1)NC(=O)[C@H](CC(=O)O)NC(=O)[C@H](CO)NC(=O)[C@@H](NC(=O)[C@H](Cc1ccccc1)NC(=O)[C@@H](N)[C@@H](C)O)[C@@H](C)CC)C(=O)N[C@@H](Cc1c[nH]cn1)C(=O)N[C@@H](CCC(N)=O)C(=O)N[C@@H](CCC(N)=O)C(=O)N[C@@H](CC(=O)O)C(=O)N[C@@H](Cc1ccccc1)C(=O)N[C@H](C(=O)N[C@@H](CC(N)=O)C(=O)N[C@@H](Cc1c[nH]c2ccccc12)C(=O)N[C@@H](CC(C)C)C(=O)N[C@@H](CC(C)C)C(=O)N[C@@H](C)C(=O)N[C@@H](CCC(N)=O)C(=O)N[C@@H](CCCCN)C(N)=O)C(C)C) [AT174 [hGIP(5-30)NH2[I12K]-C16diacid/12]] | 6.1 fold | 0.9 fold | 23.4 nM | -7.63 log(M) | 56.1 nM | 342 nM
6 | TFISDYSIK(C16 diacid)MDKIHQQDFVNWLLAQK-NH2 (N-terminus assumed; SMILES CC[C@H](C)[C@H](NC(=O)[C@H](CCCCN)NC(=O)[C@H](CC(=O)O)NC(=O)[C@H](CCSC)NC(=O)[C@H](CCCCNC(=O)CCCCCCCCCCCCCCC(=O)O)NC(=O)[C@@H](NC(=O)[C@H](CO)NC(=O)[C@H](Cc1ccc(O)cc1)NC(=O)[C@H](CC(=O)O)NC(=O)[C@H](CO)NC(=O)[C@@H](NC(=O)[C@H](Cc1ccccc1)NC(=O)[C@@H](N)[C@@H](C)O)[C@@H](C)CC)[C@@H](C)CC)C(=O)N[C@@H](Cc1c[nH]cn1)C(=O)N[C@@H](CCC(N)=O)C(=O)N[C@@H](CCC(N)=O)C(=O)N[C@@H](CC(=O)O)C(=O)N[C@@H](Cc1ccccc1)C(=O)N[C@H](C(=O)N[C@@H](CC(N)=O)C(=O)N[C@@H](Cc1c[nH]c2ccccc12)C(=O)N[C@@H](CC(C)C)C(=O)N[C@@H](CC(C)C)C(=O)N[C@@H](C)C(=O)N[C@@H](CCC(N)=O)C(=O)N[C@@H](CCCCN)C(N)=O)C(C)C) [AT175 [hGIP(5-30)NH2[A13K]-C16diacid/13]] | 9.4 fold | 0.5 fold | 14.1 nM | -7.85 log(M) | 53 nM | 498 nM
7 | TFISDYSIAMDKK(C16 diacid)HQQDFVNWLLAQK-NH2 (N-terminus assumed; SMILES CC[C@H](C)[C@H](NC(=O)[C@H](CO)NC(=O)[C@H](Cc1ccc(O)cc1)NC(=O)[C@H](CC(=O)O)NC(=O)[C@H](CO)NC(=O)[C@@H](NC(=O)[C@H](Cc1ccccc1)NC(=O)[C@@H](N)[C@@H](C)O)[C@@H](C)CC)C(=O)N[C@@H](C)C(=O)N[C@@H](CCSC)C(=O)N[C@@H](CC(=O)O)C(=O)N[C@@H](CCCCN)C(=O)N[C@@H](CCCCNC(=O)CCCCCCCCCCCCCCC(=O)O)C(=O)N[C@@H](Cc1c[nH]cn1)C(=O)N[C@@H](CCC(N)=O)C(=O)N[C@@H](CCC(N)=O)C(=O)N[C@@H](CC(=O)O)C(=O)N[C@@H](Cc1ccccc1)C(=O)N[C@H](C(=O)N[C@@H](CC(N)=O)C(=O)N[C@@H](Cc1c[nH]c2ccccc12)C(=O)N[C@@H](CC(C)C)C(=O)N[C@@H](CC(C)C)C(=O)N[C@@H](C)C(=O)N[C@@H](CCC(N)=O)C(=O)N[C@@H](CCCCN)C(N)=O)C(C)C) [AT178 [hGIP(5-30)NH2[I17K]-C16diacid/17]] | 4.5 fold | 1 fold | 27.5 nM | -7.56 log(M) | 54.3 nM | 243 nM
